# Test results published in the supplement of paper PMC10065799, “High-throughput profiling of sequence recognition by tyrosine kinases and SH2 domains using bacterial peptide display” (eLife, 2023).
# Test system: c-Src
# Assay: phosphorylation enrichment, bacterial display (enrichment ratio); higher = better substrate or ligand; peptides without Tyr show the background
# 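Note: 11-residue human phosphosite peptides and single-mutation variants displayed on the E. coli surface, counted by deep sequencing, each peptide's frequency after selection divided by its frequency in the unselected input library; frequency after pTyr selection over input frequency; kinase dosed for 20-30% of maximal phosphorylation in three min.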
row,Sequence,phosphorylation enrichment
1,MIAIRYSHSRR [ACOXL_Y260_T255M],0.426
2,RVDRDYVLKSA [HTATIP2_Y111],0.961
3,PNATLYKMSSI [SERPINA7_Y40],0.349
4,KGELRYMHSPV [ABCD1_Y281_R285P],0.365
5,ARIVDYNIIGW [MYH7_Y588_G584R],0.445
6,TEVIWYKGDEE,0.601
7,RRNEEYCLLDS [ITK_Y198],0.805
8,DTDSSYCIPTA [GAB1_Y373],0.497
9,DTYDPYLDIAL [USP36_Y268_V271I],2.42
10,GLGGVYGGASG [KRT8_Y54_G53V],0.702
11,EVKEAYMGNVL [ACAT1_Y90],0.402
12,PGLRGYPGLSG [COL4A2_Y306],0.674
13,LWQSIYNLEAE [TNNT2_Y251],6.57
14,MTKEQYIKMNR [ARFGEF2_Y797],0.369
15,SLIDMYSKVLD [OPA1_Y268_E270K],0.478
16,EYGRRYGFSCQ [CCDC93_Y209_R213C],0.483
17,FKWAVYCIIGR [NUP93_Y391_R388W_YF],0.652

row,Sequence,phosphorylation enrichment
1,DPHECYAKVFN [ALB_Y394_D399N],0.624
2,ISRASYFRKGG [ALK_Y1282_Y1278S_YF],0.506
3,ELTTCYRKKCC [CCBE1_Y70],0.379
4,ELPEKYSQNIC [PKP2_Y626_Y631C],0.579
5,DQVEQYKKELE [LMNA_Y259],0.603
6,LGRKLYSIATP [ABHD12_Y345_A349T],0.698
7,LNEWHYGGLTG [PGAM2_Y92_R90W],0.52
8,KFDLMYAKLAF [TUBA1A_Y399_R402L],3.04
9,KTNVSYFGALD [CACNB4_Y103_C104F],0.438
10,ADDSYYTARSA [ZAP70_Y493],0.7
11,RMDGTYACSFT [FLNB_Y704_YF],2.31
12,LGGAMYYLEAD [PKHD1_Y452_E457D],1.86
13,RRGMPYGGHGD [TGM1_Y312_R315H],0.434
14,LARDMHDKEFF [MET_Y1230_Y1230H_YF],0.671
15,NFRNTYVNANE [KCNH2_Y475_T473N],0.424
16,GYYDLYGGEKF [PTPN11_Y66_D61G],4.54

# Target: Fyn (UniProt P06241)
# Assay: as above
# Chain of Fyn (P06241 whole entry, looked up): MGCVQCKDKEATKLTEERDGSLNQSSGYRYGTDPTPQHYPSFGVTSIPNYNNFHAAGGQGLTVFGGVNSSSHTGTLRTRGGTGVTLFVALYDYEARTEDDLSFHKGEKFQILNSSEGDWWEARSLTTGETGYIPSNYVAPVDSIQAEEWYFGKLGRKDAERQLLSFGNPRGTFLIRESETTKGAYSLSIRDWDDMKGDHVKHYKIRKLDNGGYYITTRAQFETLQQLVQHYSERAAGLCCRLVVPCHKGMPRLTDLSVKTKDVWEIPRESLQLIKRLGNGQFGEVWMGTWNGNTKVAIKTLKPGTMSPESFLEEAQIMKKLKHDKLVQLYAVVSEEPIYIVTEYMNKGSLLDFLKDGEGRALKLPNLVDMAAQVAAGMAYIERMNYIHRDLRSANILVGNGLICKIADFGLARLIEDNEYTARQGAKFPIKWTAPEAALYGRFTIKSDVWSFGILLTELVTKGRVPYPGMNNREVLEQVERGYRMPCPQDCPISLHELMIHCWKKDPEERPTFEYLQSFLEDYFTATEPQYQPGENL
row,Sequence,phosphorylation enrichment
1,MIAIRYSHSRR [ACOXL_Y260_T255M],0.444
2,RVDRDYVLKSA [HTATIP2_Y111],0.47
3,PNATLYKMSSI [SERPINA7_Y40],0.35
4,KGELRYMHSPV [ABCD1_Y281_R285P],0.328
5,ARIVDYNIIGW [MYH7_Y588_G584R],0.545
6,TEVIWYKGDEE,0.445
7,RRNEEYCLLDS [ITK_Y198],1.7
8,DTDSSYCIPTA [GAB1_Y373],0.518
9,DTYDPYLDIAL [USP36_Y268_V271I],1.47
10,GLGGVYGGASG [KRT8_Y54_G53V],0.566
11,EVKEAYMGNVL [ACAT1_Y90],0.474
12,PGLRGYPGLSG [COL4A2_Y306],0.481
13,LWQSIYNLEAE [TNNT2_Y251],12.4
14,MTKEQYIKMNR [ARFGEF2_Y797],0.397
15,SLIDMYSKVLD [OPA1_Y268_E270K],0.421
16,EYGRRYGFSCQ [CCDC93_Y209_R213C],0.53
17,FKWAVYCIIGR [NUP93_Y391_R388W_YF],0.554

row,Sequence,phosphorylation enrichment
1,DPHECYAKVFN [ALB_Y394_D399N],0.552
2,ISRASYFRKGG [ALK_Y1282_Y1278S_YF],0.419
3,ELTTCYRKKCC [CCBE1_Y70],0.444
4,ELPEKYSQNIC [PKP2_Y626_Y631C],0.497
5,DQVEQYKKELE [LMNA_Y259],0.516
6,LGRKLYSIATP [ABHD12_Y345_A349T],0.413
7,LNEWHYGGLTG [PGAM2_Y92_R90W],0.662
8,KFDLMYAKLAF [TUBA1A_Y399_R402L],1.26
9,KTNVSYFGALD [CACNB4_Y103_C104F],0.554
10,ADDSYYTARSA [ZAP70_Y493],0.623
11,RMDGTYACSFT [FLNB_Y704_YF],2.61
12,LGGAMYYLEAD [PKHD1_Y452_E457D],1.7
13,RRGMPYGGHGD [TGM1_Y312_R315H],0.706
14,LARDMHDKEFF [MET_Y1230_Y1230H_YF],0.821
15,NFRNTYVNANE [KCNH2_Y475_T473N],0.404
16,GYYDLYGGEKF [PTPN11_Y66_D61G],7.27

# Target: FGFR1 (UniProt P11362)
# Assay: as above
# Chain of FGFR1 (P11362 whole entry, looked up): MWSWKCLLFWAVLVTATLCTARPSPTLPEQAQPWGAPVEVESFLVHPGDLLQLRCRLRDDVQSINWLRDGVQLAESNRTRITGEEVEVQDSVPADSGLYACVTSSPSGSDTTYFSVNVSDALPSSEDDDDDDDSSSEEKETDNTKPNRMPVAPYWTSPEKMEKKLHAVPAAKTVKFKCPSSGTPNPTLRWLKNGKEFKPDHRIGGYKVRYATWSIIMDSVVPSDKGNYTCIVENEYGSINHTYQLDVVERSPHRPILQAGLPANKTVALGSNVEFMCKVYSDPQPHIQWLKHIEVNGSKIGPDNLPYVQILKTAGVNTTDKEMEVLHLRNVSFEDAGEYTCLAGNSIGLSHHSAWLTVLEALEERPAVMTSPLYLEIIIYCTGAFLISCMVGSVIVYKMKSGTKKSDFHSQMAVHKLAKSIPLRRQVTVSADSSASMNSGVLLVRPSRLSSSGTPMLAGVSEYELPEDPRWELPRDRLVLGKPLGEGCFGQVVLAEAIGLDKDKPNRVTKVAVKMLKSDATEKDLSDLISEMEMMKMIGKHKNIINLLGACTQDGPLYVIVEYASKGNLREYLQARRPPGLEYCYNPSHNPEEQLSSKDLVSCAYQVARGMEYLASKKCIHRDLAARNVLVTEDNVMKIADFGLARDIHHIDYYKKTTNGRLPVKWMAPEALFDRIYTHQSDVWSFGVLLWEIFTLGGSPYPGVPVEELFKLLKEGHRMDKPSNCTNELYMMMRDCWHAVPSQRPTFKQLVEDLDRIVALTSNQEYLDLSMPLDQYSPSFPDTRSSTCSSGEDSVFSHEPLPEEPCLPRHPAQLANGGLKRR
row,Sequence,phosphorylation enrichment
1,MIAIRYSHSRR [ACOXL_Y260_T255M],0.377
2,RVDRDYVLKSA [HTATIP2_Y111],0.627
3,PNATLYKMSSI [SERPINA7_Y40],0.406
4,KGELRYMHSPV [ABCD1_Y281_R285P],0.364
5,ARIVDYNIIGW [MYH7_Y588_G584R],0.81
6,TEVIWYKGDEE,0.445
7,RRNEEYCLLDS [ITK_Y198],1.15
8,DTDSSYCIPTA [GAB1_Y373],0.592
9,DTYDPYLDIAL [USP36_Y268_V271I],0.901
10,GLGGVYGGASG [KRT8_Y54_G53V],0.448
11,EVKEAYMGNVL [ACAT1_Y90],0.596
12,PGLRGYPGLSG [COL4A2_Y306],0.621
13,LWQSIYNLEAE [TNNT2_Y251],0.66
14,MTKEQYIKMNR [ARFGEF2_Y797],0.458
15,SLIDMYSKVLD [OPA1_Y268_E270K],0.479
16,EYGRRYGFSCQ [CCDC93_Y209_R213C],0.526
17,FKWAVYCIIGR [NUP93_Y391_R388W_YF],0.614

row,Sequence,phosphorylation enrichment
1,DPHECYAKVFN [ALB_Y394_D399N],0.589
2,ISRASYFRKGG [ALK_Y1282_Y1278S_YF],0.341
3,ELTTCYRKKCC [CCBE1_Y70],0.485
4,ELPEKYSQNIC [PKP2_Y626_Y631C],0.518
5,DQVEQYKKELE [LMNA_Y259],0.561
6,LGRKLYSIATP [ABHD12_Y345_A349T],0.612
7,LNEWHYGGLTG [PGAM2_Y92_R90W],0.58
8,KFDLMYAKLAF [TUBA1A_Y399_R402L],0.49
9,KTNVSYFGALD [CACNB4_Y103_C104F],0.509
10,ADDSYYTARSA [ZAP70_Y493],0.773
11,RMDGTYACSFT [FLNB_Y704_YF],0.836
12,LGGAMYYLEAD [PKHD1_Y452_E457D],1.36
13,RRGMPYGGHGD [TGM1_Y312_R315H],0.758
14,LARDMHDKEFF [MET_Y1230_Y1230H_YF],0.625
15,NFRNTYVNANE [KCNH2_Y475_T473N],0.434
16,GYYDLYGGEKF [PTPN11_Y66_D61G],10.9

# Target: Hck (UniProt P08631)
# Assay: as above
# Chain of Hck (P08631 whole entry, looked up): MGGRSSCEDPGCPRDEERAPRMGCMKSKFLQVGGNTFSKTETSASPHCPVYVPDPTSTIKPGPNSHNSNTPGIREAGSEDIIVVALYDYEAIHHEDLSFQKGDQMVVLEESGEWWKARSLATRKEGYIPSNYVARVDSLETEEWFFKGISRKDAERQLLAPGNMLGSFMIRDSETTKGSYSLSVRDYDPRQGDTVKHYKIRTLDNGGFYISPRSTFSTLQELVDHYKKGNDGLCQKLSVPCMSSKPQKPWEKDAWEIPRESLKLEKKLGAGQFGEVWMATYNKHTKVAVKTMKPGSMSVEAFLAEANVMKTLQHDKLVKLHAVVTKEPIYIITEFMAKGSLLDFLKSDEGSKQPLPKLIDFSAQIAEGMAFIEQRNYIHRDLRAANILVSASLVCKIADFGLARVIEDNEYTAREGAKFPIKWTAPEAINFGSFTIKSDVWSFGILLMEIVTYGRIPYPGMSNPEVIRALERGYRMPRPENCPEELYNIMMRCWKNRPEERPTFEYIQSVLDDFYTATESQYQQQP
row,Sequence,phosphorylation enrichment
1,MIAIRYSHSRR [ACOXL_Y260_T255M],0.43
2,RVDRDYVLKSA [HTATIP2_Y111],0.772
3,PNATLYKMSSI [SERPINA7_Y40],0.401
4,KGELRYMHSPV [ABCD1_Y281_R285P],0.345
5,ARIVDYNIIGW [MYH7_Y588_G584R],0.56
6,TEVIWYKGDEE,0.335
7,RRNEEYCLLDS [ITK_Y198],1.1
8,DTDSSYCIPTA [GAB1_Y373],0.578
9,DTYDPYLDIAL [USP36_Y268_V271I],1.06
10,GLGGVYGGASG [KRT8_Y54_G53V],0.669
11,EVKEAYMGNVL [ACAT1_Y90],0.42
12,PGLRGYPGLSG [COL4A2_Y306],0.505
13,LWQSIYNLEAE [TNNT2_Y251],7.01
14,MTKEQYIKMNR [ARFGEF2_Y797],0.407
15,SLIDMYSKVLD [OPA1_Y268_E270K],0.497
16,EYGRRYGFSCQ [CCDC93_Y209_R213C],0.617
17,FKWAVYCIIGR [NUP93_Y391_R388W_YF],0.699

row,Sequence,phosphorylation enrichment
1,DPHECYAKVFN [ALB_Y394_D399N],0.81
2,ISRASYFRKGG [ALK_Y1282_Y1278S_YF],0.435
3,ELTTCYRKKCC [CCBE1_Y70],0.396
4,ELPEKYSQNIC [PKP2_Y626_Y631C],0.533
5,DQVEQYKKELE [LMNA_Y259],0.509
6,LGRKLYSIATP [ABHD12_Y345_A349T],0.672
7,LNEWHYGGLTG [PGAM2_Y92_R90W],0.738
8,KFDLMYAKLAF [TUBA1A_Y399_R402L],4.61
9,KTNVSYFGALD [CACNB4_Y103_C104F],0.484
10,ADDSYYTARSA [ZAP70_Y493],1.12
11,RMDGTYACSFT [FLNB_Y704_YF],2.43
12,LGGAMYYLEAD [PKHD1_Y452_E457D],1.08
13,RRGMPYGGHGD [TGM1_Y312_R315H],0.52
14,LARDMHDKEFF [MET_Y1230_Y1230H_YF],0.812
15,NFRNTYVNANE [KCNH2_Y475_T473N],0.466
16,GYYDLYGGEKF [PTPN11_Y66_D61G],6.7
